From publication doi:10.1101/2020.07.14.203299 (bioRxiv, 2020)

T1: GST-FliJ (purified) (Salmonella enterica serovar Typhimurium, UniProt P0A1K1 1-147)
T1 sequence (looked up): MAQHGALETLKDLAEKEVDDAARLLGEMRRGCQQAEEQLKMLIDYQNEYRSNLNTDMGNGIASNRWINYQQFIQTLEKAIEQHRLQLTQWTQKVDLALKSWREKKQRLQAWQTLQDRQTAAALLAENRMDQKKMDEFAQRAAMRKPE

B1: GST-FliJ(Δ13–24) (natural protein, Salmonella enterica serovar Typhimurium, UniProt P0A1K1 1-147, looked up)
chain: MAQHGALETLKDLGEMRRGCQQAEEQLKMLIDYQNEYRSNLNTDMGNGIASNRWINYQQFIQTLEKAIEQHRLQLTQWTQKVDLALKSWREKKQRLQAWQTLQDRQTAAALLAENRMDQKKMDEFAQRAAMRKPE
B2: His-FlgN (natural protein, Salmonella enterica serovar Typhimurium, UniProt P0A1J7 1-140, looked up)
chain: MTRLSEILDQMTTVLNDLKTVMDAEQQQLSVGQINGSQLQRITEEKSSLLATLDYLEQQRRLEQNAQRSANDDIAERWQAITEKTQHLRDLNQHNGWLLEGQIERNQQALEVLKPHQEPTLYGADGQTSVSHRGGKKISI

Legend:
His-FlgN = target: B2; assay: SPR
GST-FliJ (purified) = target: T1, GST-FliJ (purified); assay: SPR

| Binder | Kd (His-FlgN) [µM] | Kd (GST-FliJ (purified)) [µM] |
| --- | --- | --- |
| B1 | 7.74 ± 0.12 | – |
| B2 | – | 27.4 ± 13 |
